Results taken from US9518103B2, “Optogenetic probes for measuring membrane potential” (President and Fellows of Harvard College, priority 2014, dated 2016).
Numbering of substitutions follows the chain as printed. In names and notes the source's numbering stands. Read-outs that look alike come from different tables or passages of the source.

B1: QuasAr1: Archaerhodopsin 3 variant with mutations P60S, T80S, D95H, D106H, F161V; genetically encoded voltage indicator (protein)
chain: MDPIALQAGYDLLGDGRPETLWLGIGTLLMLIGTFYFLVRGWGVTDKDAREYYAVTILVSGIASAAYLSMFFGIGLTEVSVGGEMLDIYYARYAHWLFTTPLLLLHLALLAKVDRVTIGTLVGVDALMIVTGLIGALSHTAIARYSWWLFSTICMIVVLYVLATSLRSAAKERGPEVASTFNTLTALVLVLWTAYPILWIIGTEGAGVVGLGIETLLFMVLDVTAKVGFGFILLRSRAILGDTEAPEPSAGADVSAAD
B2: QuasAr2: Archaerhodopsin 3 variant with mutations P60S, T80S, D95Q, D106H, F161V; genetically encoded voltage indicator (protein)
chain: B1 chain with H95Q

Assays:
[1] = tested on: cultured rat hippocampal neurons; conditions: for signal-to-noise ratio (SNR) for single APs: 640 nm; for photobleaching time constant: continuous illumination 640 nm; for broadening of optically recorded AP relative to electrical waveform at 70% maximum depolarization: room temperature, 2 kHz frame rate; for r.m.s. temporal jitter of AP timing relative to patch clamp: sub-frame interpolation
[2] = Quantum yield of solubilized protein (Cy5 reference); format: physicochemical; conditions: for Quantum yield / Quantum yield relative to Arch D95N: excitation at 600 nm
Protocol: Solubilization and spectroscopic characterization of QuasAr1 and QuasAr: E. coli expressing QuasAr1 and QuasAr2 were grown in 12 mL LB medium with 200 μg/ml ampicillin overnight. The next day, 12 mL of liquid LB medium containing 50 μM retinal, 200 μg/ml ampicillin and 0.1% arabinose was added into the overnight culture, followed by additional incubation at 37° C. for 4 hours. The cell pellets were collected by centrifugation and lysed by suspension in B-PER solution (Pierce). The cytoplasmic fraction was discarded after centrifugation and the colored insoluble fraction was resuspended in phosphate buffered saline (PBS) containing 1.5% n-dodecyl-β-D-maltopyranoside (Affymetrix, Inc.). The suspension was homogenized by an ultrasonic homogenizer and centrifuged (17,000 g for 15 mins, 4° C.). The solubilized protein in the supernatant was used for in vitro spectroscopic characterization.
Absorption spectra were recorded on a DU-800 UV-visible spectrophotometer (Beckman) and fluorescence spectra were recorded on a Safire2 plate reader (Tecan). Cy5 carboxylic acid (Cyandye) was used as the reference for quantum yield measurement. Quantum yield measurements were performed on a series of dilutions of each protein solution and standard, with absorbance values ranging from 0.01 to 0.05 at 600 nm. The fluorescence emission spectra of each dilution were recorded with excitation at 600 nm and the total fluorescence intensities obtained by integration. Integrated fluorescence intensity vs. absorbance was plotted for each protein and each standard. Quantum yields, Φ, were determined from the slopes (S) of each line using the equation: Φprotein=Φstandard×(Sprotein/Sstandard).

HEK293 cells = experiment: Optical crosstalk of blue illumination into QuasAr fluorescence; format: cell-based; conditions: continuous 640 nm 300 W/cm^2
Text: FIGS. 5A-5B show the quantification of optical crosstalk of blue illumination into QuasAr fluorescence. Illumination sufficient to induce high-frequency trains of action potentials (488 nm, 140 mW/cm2) perturbed fluorescence of QuasArs by <1%. […] HEK293 cells expressing QuasAr1 or QuasAr2 were exposed to continuous excitation at 640 nm (300 W/cm^2) and pulses of illumination at 488 nm (50 ms, 5 Hz). The intensity of the blue pulses increased from 0.06 to 1.8 W/cm^2. […] Illumination with blue light at typical intensity used to excite a blue-light activator (CheRiff) (0.2 W/cm^2) increased QuasAr1 fluorescence by 1.1% and QuasAr2 fluorescence by 0.6%. Illumination at with blue light at 1 W/cm^2 increased QuasAr1 fluorescence by 3.4% and QuasAr2 fluorescence by 2.4%. Error bars represent s.e.m. for n=5 cells for each QuasAr.

[3] = tested on: cultured rat hippocampal neurons; experiment: Single-trial detection of neuronal action potentials with eFRET GEVIs; format: cell-based; conditions: 3 W/cm^2 illumination, exposure times compatible with single action potentials
Text: We further characterized the most sensitive eFRET voltage sensors via transient transfection in cultured rat hippocampal neurons. […] Injection of current pulses via a patch pipette (500-600 pA, 5-10 ms, 5 Hz) induced trains of action potentials, which induced downward fluorescence transients of 12% (YFP), 12% (mOrange2), 7% (mRuby2).
The signal-to-noise ratio (SNR) of fluorescence detection, defined as the ratio of the peak amplitude to standard deviation of fluorescence at the baseline, was 6.6 (YFP), 11.6 (mOrange2), and 10.5 (mRuby2). In all cases images were acquired at 1 kHz with 3 W/cm^2 illumination intensity. Previous measurements with QuasAr2 reported an SNR of 30-70 at the same bandwidth but with 800 W/cm^2 illumination.

Row | Molecule | equivalent electrical noise level ([1]; 300 W/cm^2) | signal-to-noise ratio (SNR) for single APs ([1]; 300 W/cm^2, 1 kHz frame rate) | signal-to-noise ratio (SNR) for single APs ([1]; 800 W/cm^2, 1 kHz frame rate) | equivalent electrical noise level ([1]; 800 W/cm^2) | photobleaching time constant ([1]; 300 W/cm^2) | r.m.s. error in timing ([1]; optically induced APs, soma, sub-frame interpolation vs patch clamp) | broadening of optically recorded AP relative to electrical waveform at 70% maximum depolarization ([1]; mean±s.d.) | r.m.s. temporal jitter of AP timing relative to patch clamp [1] | fluorescence quantum yield enhanced relative to Arch(D95N) [2] | Quantum yield [2] | Quantum yield relative to Arch D95N [2] | increase of fluorescence by blue light (HEK293 cells; 488 nm 0.2 W/cm^2) | increase of fluorescence by blue light (HEK293 cells; 488 nm 1 W/cm^2) | direct fluorescence [3] | single-trial SNR ([1]; 34° C., 640 nm 300 W/cm^2) | broadening of optically recorded AP relative to electrical waveform ([1]; 34° C., mean±s.d.) | fidelity of AP reporting (red light phototoxicity test) ([1]; continuous illumination at 300 W/cm^2, 30 min)
1 | B1 | 4.3 mV | 21±2 | 32±4 | 3.0 mV | 440 s | 54 μs | did not introduce detectable broadening | 44 μs | 19 fold | 8 × 10^−3 | 19 | 1.1% | 3.4% | – | – | – | –
2 | B2 | 2.2 mV | 41±4 | – | 1.5 mV | 1020 s | – | 650±150 μs | 61 μs | 10 fold | 4 × 10^−3 | 10 | 0.6% | 2.4% | not detectable | 41±3 | 180±120 μs | 100%
